According to patent US20240321457A1 (University of California, published 2024):

Tests used:
Test in all cases: AP-MS, 3xFLAG bait, MDA-MB-231 cells
BRCA1 M1775R = target: T1, BRCA1 M1775R (human, UniProt P38398 1-1863)
T1 construct: 3xFLAG-tagged bait; also called BRCT domain mutant M1775R

BRCA1 S1655F = target: T2, BRCA1 S1655F (human, UniProt P38398 1-1863)
T2 construct: 3xFLAG-tagged bait; also called BRCT domain mutant S1655F; 51655F

BRCA1 5382insC = target: T3, BRCA1 5382insC (human, UniProt P38398 1-1755, limits assumed)
T3 construct: 3xFLAG-tagged bait; also called 5832insC

binding result (BRCA1 M1775R): no binding | binding result (BRCA1 S1655F): no binding | binding result (BRCA1 5382insC): no binding
B1: UIMC1 (other, human, UniProt Q96RL1 1-719, looked up)
chain: MPRRKKKVKEVSESRNLEKKDVETTSSVSVKRKRRLEDAFIVISDSDGEEPKEENGLQKTKTKQSNRAKCLAKRKIAQMTEEEQFALALKMSEQEAREVNSQEEEEEELLRKAIAESLNSCRPSDASATRSRPLATGPSSQSHQEKTTDSGLTEGIWQLVPPSLFKGSHISQGNEAEEREEPWDHTEKTEEEPVSGSSGSWDQSSQPVFENVNVKSFDRCTGHSAEHTQCGKPQESTGRGSAFLKAVQGSGDTSRHCLPTLADAKGLQDTGGTVNYFWGIPFCPDGVDPNQYTKVILCQLEVYQKSLKMAQRQLLNKKGFGEPVLPRPPSLIQNECGQGEQASEKNECISEDMGDEDKEERQESRASDWHSKTKDFQESSIKSLKEKLLLEEEPTTSHGQSSQGIVEETSEEGNSVPASQSVAALTSKRSLVLMPESSAEEITVCPETQLSSSETFDLEREVSPGSRDILDGVRIIMADKEVGNKEDAEKEVAISTFSSSNQVSCPLCDQCFPPTKIERHAMYCNGLMEEDTVLTRRQKEAKTKSDSGTAAQTSLDIDKNEKCYLCKSLVPFREYQCHVDSCLQLAKADQGDGPEGSGRACSTVEGKWQQRLKNPKEKGHSEGRLLSFLEQSEHKTSDADIKSSETGAFRVPSPGMEEAGCSREMQSSFTRRDLNESPVKSFVSISEATDCLVDFKKQVTVQPGSRTRTKAGRGRRRKF
notes: endogenous prey from cell lysate
